Source: the MegaScale stability set (Tsuboyama et al. 2023)

B1: 2M8U (parent)
chain: TKAQVIEAFKVFDRDGNGYVTVDYLRKVLNELGDMMPADEIEEMIYEADPQNSGYVQYETFVGMLFL
B2: EHEE_rd2_0196 (parent)
chain: TETRTFDSEEEAKKAQKEAEKQGRTVTITRRDDRWEVRFD

Variants of: B1
Experiment: folding stability dG (cDNA display proteolysis); higher = more stable
Settings: PBS, room temperature

Folding stability dG [kcal/mol] of substitutions, site by site:
Q4: D 3.28; H 3.12; V 3.02; K 3.38; P 2.35; L 3.21; F 2.87; I 3.15; T 3.04; N 3.09; R 3.34; Y 2.97; W 3.08; C 3.56; E 3.41; A 3.53; S 3.47; G 2.99; M 3.31
V5: K 1.82; I 3.81; T 2.49; H 2.36; E 1.95; M 3.85; G 1.89; D 1.89; C 3.17; Q 2.09; R 1.91; L 3.95; S 2.1; F 3.59; A 2.77; P 1.77; N 2.04; Y 4.08; W 4.09
T1: H 3.16; C 3.76; Q 3.13; N 3.18; V 3.32; P 2.6; Y 2.83; G 2.88; E 2.94; I 3.61; F 2.91; A 3.13; L 3.3; M 3.21; S 3.34; D 2.96; K 3.48; W 3.1; R 3.33
E7: L 3.28; N 3.17; M 3.13; Y 2.7; Q 2.96; F 2.86; T 2.53; P 1.91; A 3.46; H 2.93; R 2.85; K 3.1; W 2.42; I 3.07; V 3.08; G 2.87; C 3.41; S 2.76; D 3.41
K2: N 2.56; C 3.6; V 3.4; R 3.02; A 3.47; W 2.67; S 2.98; I 3.46; H 3.11; T 2.79; L 3.3; M 3.65; E 3.07; D 2.24; Y 3.24; G 2.52; F 2.94; P 3.2
A8: T 2.67; I 3.5; P 2.02; K 3.62; C 3.46; V 2.84; F 3.23; S 3.11; Q 3.3; N 2.81; G 2.64; E 2.59; M 3.76; Y 3.17; R 3.6; W 3.56; H 3.02; L 3.56; D 2.49
F9: E 1.96; A 2.63; M 3.82; H 2.14; G 2.1; L 4.1; K 2.18; I 4.09; N 2.22; C 3.12; P 2.32; D 1.85
A3: P 2.67; R 3.23; K 3.31; V 3.2; L 3.21; D 3.28; N 3.25; Y 2.81; I 3.27; W 2.9; H 3.22; M 3.24; Q 3.56; S 3.46; G 2.93; C 3.48; E 3.69; T 3.14; F 3
I6: K 2.38; S 2.25; P 1.65; W 2.18; V 2.86; T 2.72; R 2.46; Q 2.31; Y 2.56; G 2.34; F 2.6; D 2.38; E 2.81; L 3.66; A 2.25; C 3.4; N 2.55; H 2.76; M 3.42

Variants of: B2
Experiment: as above
Settings: PBS, room temperature

Folding stability dG [kcal/mol], by site and new letter:
D40: Y 2.8; V 3.21; W 2.89; T 3.15
